In publication PMC8015000, “FYN and ABL Regulate the Interaction Networks of the DCBLD Receptor Family” (Molecular & Cellular Proteomics : MCP, 2020):

T1: DCBLD2-FLAG-MYC (full-length human Discoidin, CUB, and LCCL domain-containing protein 2) (human, UniProt Q96PD2 67-775)
T1 construct: DCBLD2, human, full-length cDNA in pCMV6-Entry (OriGene RC224483); Expressed alone or together with ABL-FLAG or FYN; also called ESDN; source: HEK 293, transfected, in lysate; immunoprecipitated (alpha-FLAG or alpha-MYC) for the zebrafish extract experiment and the far-Western; not shown: FLAG, C-terminal, kept; MYC, C-terminal, kept
T1 sequence (looked up): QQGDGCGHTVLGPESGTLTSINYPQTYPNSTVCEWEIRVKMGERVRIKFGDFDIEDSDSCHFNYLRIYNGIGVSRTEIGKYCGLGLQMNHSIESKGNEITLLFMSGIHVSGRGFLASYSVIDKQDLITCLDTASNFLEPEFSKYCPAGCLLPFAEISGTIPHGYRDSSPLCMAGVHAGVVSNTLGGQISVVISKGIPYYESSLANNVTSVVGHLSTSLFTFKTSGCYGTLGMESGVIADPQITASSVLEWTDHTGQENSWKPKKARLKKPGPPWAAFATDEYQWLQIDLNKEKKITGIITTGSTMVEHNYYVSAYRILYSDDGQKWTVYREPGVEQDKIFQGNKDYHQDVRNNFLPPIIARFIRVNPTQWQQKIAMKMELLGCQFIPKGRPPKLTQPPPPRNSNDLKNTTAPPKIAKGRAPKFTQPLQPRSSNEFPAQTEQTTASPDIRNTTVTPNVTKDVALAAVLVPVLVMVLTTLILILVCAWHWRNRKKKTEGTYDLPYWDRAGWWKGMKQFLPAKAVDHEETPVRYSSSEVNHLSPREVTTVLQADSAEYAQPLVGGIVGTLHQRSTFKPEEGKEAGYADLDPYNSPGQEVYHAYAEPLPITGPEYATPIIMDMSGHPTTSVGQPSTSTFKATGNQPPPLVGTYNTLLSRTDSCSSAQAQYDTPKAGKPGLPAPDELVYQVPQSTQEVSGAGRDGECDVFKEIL

B1: GST-14-3-3β (natural protein, UniProt P31946 1-246, looked up)
chain: MTMDKSELVQKAKLAEQAERYDDMAAAMKAVTEQGHELSNEERNLLSVAYKNVVGARRSSWRVISSIEQKTERNEKKQQMGKEYREKIEAELQDICNDVLELLDKYLIPNATQPESKVFYLKMKGDYFRYLSEVASGDNKQTTVSNSQQAYQEAFEISKKEMQPTHPIRLGLALNFSVFYYEILNSPEKACSLAKTAFDEAIAELDTLNEESYKDSTLIMQLLRDNLTLWTSENQGDEGDAGEGEN
notes: 14-3-3β, pGEX plasmid, gift of M. Yaffe; also called fusion of GSH S-transferase with 14-3-3β; source: E. coli, purified on glutathione resin (kept on the beads for pull-down; eluted with GSH and dialyzed for far-Western)
B2: GST-14-3-3ζ (natural protein, UniProt P63104 1-245, looked up)
chain: MDKNELVQKAKLAEQAERYDDMAACMKSVTEQGAELSNEERNLLSVAYKNVVGARRSSWRVVSSIEQKTEGAEKKQQMAREYREKIETELRDICNDVLSLLEKFLIPNASQAESKVFYLKMKGDYYRYLAEVAAGDDKKGIVDQSQQAYQEAFEISKKEMQPTHPIRLGLALNFSVFYYEILNSPEKACSLAKTAFDEAIAELDTLSEESYKDSTLIMQLLRDNLTLWTSDTQGDEAEAGEGGEN
notes: 14-3-3ζ, pGEX plasmid, gift of M. Yaffe; also called fusion of GSH S-transferase with 14-3-3ζ; source: E. coli, purified on glutathione resin (kept on the beads for pull-down; eluted with GSH and dialyzed for far-Western)
B3: GST-14-3-3ε (natural protein, UniProt P62258 1-255, looked up)
chain: MDDREDLVYQAKLAEQAERYDEMVESMKKVAGMDVELTVEERNLLSVAYKNVIGARRASWRIISSIEQKEENKGGEDKLKMIREYRQMVETELKLICCDILDVLDKHLIPAANTGESKVFYYKMKGDYHRYLAEFATGNDRKEAAENSLVAYKAASDIAMTELPPTHPIRLGLALNFSVFYYEILNSPDRACRLAKAAFDDAIAELDTLSEESYKDSTLIMQLLRDNLTLWTSDMQGDGEEQNKEALQDVEDENQ
notes: 14-3-3ε, pGEX plasmid, gift of M. Yaffe; also called fusion of GSH S-transferase with 14-3-3ε; source: E. coli, purified on glutathione resin (kept on the beads for pull-down; eluted with GSH and dialyzed for far-Western)
B4: GST-14-3-3σ (natural protein, UniProt P31947 1-248, looked up)
chain: MERASLIQKAKLAEQAERYEDMAAFMKGAVEKGEELSCEERNLLSVAYKNVVGGQRAAWRVLSSIEQKSNEEGSEEKGPEVREYREKVETELQGVCDTVLGLLDSHLIKEAGDAESRVFYLKMKGDYYRYLAEVATGDDKKRIIDSARSAYQEAMDISKKEMPPTNPIRLGLALNFSVFHYEIANSPEEAISLAKTTFDEAMADLHTLSEDSYKDSTLIMQLLRDNLTLWTADNAGEEGGEAPQEPQS
notes: 14-3-3σ, pGEX plasmid, gift of M. Yaffe; also called fusion of GSH S-transferase with 14-3-3σ; source: E. coli, purified on glutathione resin (kept on the beads for pull-down; eluted with GSH and dialyzed for far-Western)

What follows are binders tested against T1, DCBLD2-FLAG-MYC (full-length human …) (assay: pull-down; GST-14-3-3 fusions on GSH beads rocked at 4 C with lysates of 293 cells expressing DCBLD2-FLAG-MYC alone or with ABL-FLAG; washed 3x with BCLB; Western blotting (alpha-MYC for DCBLD2)). Settings: one partner purified.

Binder | binding result
B1 | binds
B2 | binds
B3 | binds
B4 | binds
